Target: Cbl (UniProt P22681)
Assay: anti-CD93 co-IP, anti-Cbl blot
Conditions: reference: wild type CD93 (res85); sites Y628,Y644

binding against the reference: lost
Substance: CD93 (from UniProt Q9NPY3) Y628F/Y644F (res85Y1Y2)

— publication PMC4891106
